Measured values reported in patent US20230348572A1.
Read-outs that look alike come from different tables or passages of the source.

Assays:
[1] = molecular target: RBD-6H (amino acid 340-538; NITN.GPKK), biotinylated (SARS-CoV-2) (UniProt P0DTC2)
[2] = molecular target: RBD (amino acids 340-538 NITN.GPKK) expressed on the surface of MDCK-SIAT1 cells (SARS-CoV-2) (UniProt P0DTC2)
[3] = molecular target: RBD-6H (amino acid 340-538; NITN.GPKK), biotinylated (SARS-CoV-2) (UniProt P0DTC2); remark: listed apart in the source

Substance	IC50 [1]	IC50 [2]	IC50 [3]
CR3022-Fc (antibody)	0.803 µM		
VHH72-Fc (Fc fusion)		0.033 µM	0.262 µM
H11-H4-Fc (Fc fusion)		0.034 µM	0.061 µM
